From article PMC2885444 (The Biochemical journal, 2009) come the findings set out here.

This experiment has as its target CHD4 PHD2 finger, wild type (UniProt Q14839 446-501). As to the kind of experiment: other fluorescence titration + NMR titration.

As usually defined, the Kd is a measure of binding affinity in units of concentration. Turning to ARTKQTARKSTG (trimethyl-lysine at 4) [H3K4me3 peptide (12-mer histone tail peptide)], the Kd was 2 mM.
